Source: patent US6958322
Values belong to the molecule of their own block, whether it stands above or below them.

Assays:
[1] = tested on: recombinant factor X wild type (rFX)
[2] = target: purified plasma factor IX (Stago) (UniProt P00740)
[3] = target: corresponding murine coagulation proteins; assay: cell-based or functional assay
[4] = target: corresponding murine coagulation proteins

Sequence of UniProt P00740 (P00740 whole entry, looked up): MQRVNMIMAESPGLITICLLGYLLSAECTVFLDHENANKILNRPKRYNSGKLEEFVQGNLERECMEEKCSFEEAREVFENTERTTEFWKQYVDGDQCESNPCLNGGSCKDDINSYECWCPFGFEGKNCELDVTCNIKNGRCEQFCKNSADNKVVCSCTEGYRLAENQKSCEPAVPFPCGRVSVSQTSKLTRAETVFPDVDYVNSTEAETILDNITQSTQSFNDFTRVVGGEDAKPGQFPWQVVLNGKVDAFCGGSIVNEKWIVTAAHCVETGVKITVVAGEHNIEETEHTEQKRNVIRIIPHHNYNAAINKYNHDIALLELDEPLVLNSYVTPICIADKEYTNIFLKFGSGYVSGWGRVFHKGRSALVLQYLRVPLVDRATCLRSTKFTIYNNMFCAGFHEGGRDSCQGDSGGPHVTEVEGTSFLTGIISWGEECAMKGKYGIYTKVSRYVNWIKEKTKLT

Molecule: purified factor XIa
- cleavage, Western blot (negative control) [1]: compared to rFX in the absence of FXIa, no change for rFX is visible in the protein pattern after incubation with FXIa
- cleavage / in vitro activation, Western blot (rFX/FXIa (Q-R/I) analog): after an incubation time of 1 h at 37 °C in the presence of CaCl2, the reaction batch of FXIa, with rFX/FXIa (Q-R/I) as a substrate, shows protein bands of approximately 36 kD and 32 kD which resemble the activated alpha and beta forms (aHCa and bHCa) of the heavy chain of FX
- cleavage / conversion into activated forms, Western blot [2]: The conversion of FIX into the activated forms (FIXa and FIXb)

- Coagulation Time in sec. (aPTT, FIX-def. mouse plasma + rfX/fXIa(Q-R/I)) [3]: 48.6 s
- Coagulation Time in sec. (aPTT, FVIII-def. mouse plasma + rfX/fXIa(Q-R/I)) [3]: 52.5 s
B1: rFX/FXIa (Q-R/I) analog, P00742 41-179; P00742 183-488 (enzyme)
light: ANSFLEEMKKGHLERECMEETCSYEEAREVFEDSDKTNEFWNKYKDGDQCETSPCQNQGKCKDGLGEYTCTCLEGFEGKNCELFTRKLCSLDNGDCDQFCHEEQNSVVCSCARGYTLADNGKACIPTGPYPCGKQTLER
heavy: SVAQATSSSGEAPDSITWKPYDAADLDPTENPFDLLDFNQTQPEQSFNDFTRIVGGQECKDGECPWQALLINEENEGFCGGTILSEFYILTAAHCLYQAKRFKVRVGDRNTEQEEGGEAVHEVEVVIKHNRFTKETYDFDIAVLRLKTPITFRMNVAPACLPERDWAESTLMTQKTGIVSGFGRTHEKGRQSTRLKMLEVPYVDRNSCKLSSSFIITQNMFCAGYDTKQEDACQGDSGGPHVTRFKDTYFVTGIVSWGESCARKGKYGIYTKVTAFLKWIDRSMKTRGLPKAKSHAPEVITSSPLK

B2: rFX/FXIa (Q-R/I) analog (protein)
chain 1: B1 light
chain 2: B1 heavy
- % Activity in mouse plasma (aPTT, FIX-def. plasma + rfX/fXIa(Q-R/I)) [4]: 166%
- % Activity in mouse plasma (aPTT, FVIII-def. plasma + rfX/fXIa(Q-R/I)) [4]: 97%
